Reference: patent US20120003668A1, “HIGH RESOLUTION COMPLEX STRUCTURE AND ALLOSTERIC EFFECTS OF LOW MOLECULAR WEIGHT ACTIVATORS ON THE PROTEIN KINASE PDK1” (UNIVERSITAET DES SAARLANDES, priority 2008, published 2012)
Entries after “also recorded” stand apart in the source; their conditions may differ. Non-standard residues stand in square brackets, D forms with d. Residues, ends and D or L forms follow the SMILES beside them. *: point of attachment. Biotin = O=C1N[C@H]2[C@H](CS[C@H]2CCCCC(=O)*)N1; pT = C[C@@H](OP(=O)(O)O)[C@H](N)C(=O)O; pS = N[C@@H](COP(=O)(O)O)C(=O)O

T1: PDK1 catalytic domain (Homo sapiens, UniProt O15530)
T1 construct: The catalytic domain (CD) of PDK1 50-359 and its mutants
T1 sequence (O15530 50-359): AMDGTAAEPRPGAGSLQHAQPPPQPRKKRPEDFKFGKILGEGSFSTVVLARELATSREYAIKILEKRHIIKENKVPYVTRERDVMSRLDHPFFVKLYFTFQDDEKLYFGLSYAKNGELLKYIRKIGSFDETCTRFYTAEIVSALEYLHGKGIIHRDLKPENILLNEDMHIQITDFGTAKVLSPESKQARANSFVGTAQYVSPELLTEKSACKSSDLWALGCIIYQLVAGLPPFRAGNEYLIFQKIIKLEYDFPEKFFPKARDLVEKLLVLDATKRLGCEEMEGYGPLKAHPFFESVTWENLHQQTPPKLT

T2: PDK1 CD wt (Homo sapiens, UniProt O15530)
T2 construct: PDK1 CD (50-359), wt (0.35 μM), PDK1 [Phe224Trp] or PDK1 [Thr226Trp] were injected onto the system; GST (N); made in house; host or cells: insect cells
T2 sequence (O15530 50-359): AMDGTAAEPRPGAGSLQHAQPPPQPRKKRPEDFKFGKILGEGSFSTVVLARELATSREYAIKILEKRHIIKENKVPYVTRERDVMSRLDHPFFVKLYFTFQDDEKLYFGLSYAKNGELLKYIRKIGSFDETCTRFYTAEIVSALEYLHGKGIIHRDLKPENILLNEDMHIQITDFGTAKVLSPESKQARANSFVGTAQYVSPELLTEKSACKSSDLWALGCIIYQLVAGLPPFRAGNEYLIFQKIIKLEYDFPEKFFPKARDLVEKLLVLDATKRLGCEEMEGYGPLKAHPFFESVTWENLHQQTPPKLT

T3: PIFtide
T3 chain: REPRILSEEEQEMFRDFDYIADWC

T4: biotin-PIFtide (biotin (position not given))
T4 construct: Biotinylated PIFtide
T4 peptide: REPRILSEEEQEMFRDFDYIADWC


Legend:
[1] = test system: PDK1; assay: PDK1 protein kinase activity test with T308tide substrate; assay type: biochemical, human
Protocol: In brief, PDK1 activity assay was performed at room temperature (22° C.) in a 20 μl mix containing 50 mM Tris pH 7.5, 0.05 mg/ml BSA, 0.1% β-mercaptoethanol, 10 mM MgCl2, 100 μM [γ^32P]ATP (5-50 cpm/pmol), 0.003% Brij, 150 ng PDK1, and T308tide (from 0.1 to 1 mM). […] Experiments were repeated at least twice.

[2] = biological target: T1, PDK1 catalytic domain; assay: TNP-ATP fluorescence probing of the ATP binding site conformation; assay type: biochemical; details: 40 μM TNP-ATP, 15 μM PDK1 catalytic domain
Source text: Probing the conformation of the ATP binding site in PDK1: The activation of PDK1 by HM-polypeptides and small compounds is due to a change in the conformation of the enzyme. We probed the conformation of the ATP binding site in PDK1 by scanning the steady-state fluorescence of TNP-ATP/PDK1, in the presence or absence of P-HM-polypeptides, PIFtide, or small molecular weight compounds. Data were obtained in a Varian Cary Eclipse spectrofluorometer (excitation λ=479 nm; emission scanning, λ=500-600 nm; excitation slit=10 nm; emission slit=10 nm) at a rate of 200 nm/min, with 150 datapoints/100 nm scanning and 0.3 s averaging time. The incubation was performed at 20° C. in a buffer containing 50 mM Tris pH 7.5, 0.1 mM EDTA, 187 mM NaCl, 40 μM TNP-ATP, 15 μM PDK1 catalytic domain, 1 mM DTT and 1% DMSO. In the absence of PDK1, TNP-ATP produced approximately 1.5 arbitrary units (a.u.) of fluorescence, and the inclusion of PDK1 increased its fluorescence intensity to approximately 3.3 a.u. […] In preliminary tests, inclusion of 2.5 mM MgCl2 in the assay mix produced similar results. Data for each condition are the average of 3 scans.

[3] = biological target: T2, PDK1 CD wt; assay: Surface plasmon resonance (BiaCore) on biotin-P-HM-S6K chip; assay type: binding; details: estimated from response units at equilibrium; read-out: Kd of direct binding of PDK1 CD wt to immobilized peptide
Protocol: Surface Plasmon resonance (BiaCore) and alpha-screen interaction and displacement assays: Binding of GST-PDK1 to a P-HM-polypeptide derived from S6K1 shown in FIG. 6 was analysed by surface plasmon resonance on a BiaCore 3000 system using a streptavidin-coated Sensor chip (SA) and biotin-P-HM-polypeptide, as previously described (Biondi, R. M. et al., Embo. J. 20:4380-4390 (2001). The interaction of His-PDK1 with biotin-PIFtide and the displacement by compounds shown in FIG. 3 was performed using the alpha-screen Ni-Chelate kit (Perkin Elmer) on an Envision 2104 multilabel system (Perkin Elmer).
BiaCore analysis was performed as described previously (Biondi, R. M. et al., Embo. J. 19:979-988 (2000)). […] Since both mutants were performed on the same construct of PDK1, their mass should be very similar and therefore should also produce 600RU when all biotin-(P)HM-S6K polypeptides on the same chip are bound to the mutant PDK1 proteins. Unfortunately, when mutant PDK1 Phe224Trp and PDK1 Thr226Trp were analysed, the injection of the mutants at concentrations higher than 1.3 μM prompted unspecific effects, therefore making difficult the evaluation. […]

[4] = biological target: biotin-P-HM-polypeptide derived from S6K1; assay: SPR (BiaCore 3000), biotin-P-HM-S6K on streptavidin chip
[5] = biological target: biotin-P-HM-polypeptide derived from S6K1; assay: SPR (BiaCore), immobilised biotin-P-HM-S6K
[6] = biological target: T3, PIFtide
[7] = biological target: biotin-P-HM-polypeptide derived from S6K1; assay: SPR (BiaCore 3000), biotin-P-HM-S6K on streptavidin chip, equilibrium responses
[8] = biological target: T4, biotin-PIFtide; assay: SPR (BiaCore), immobilised biotin-PIFtide
[9] = biological target: biotin-P-HM-polypeptide derived from S6K1; assay: SPR (BiaCore), biotin-P-HM-S6K on streptavidin chip; mutant injected at 1.3 or 1.8 µM (which mutant at which concentration is not stated)
[10] = biological target: biotin-P-HM-polypeptide derived from S6K1; assay: SPR (BiaCore), biotin-P-HM-S6K chip; injected at 1.8 vs 1.3 µM

biotin-P-HM-polypeptide derived from S6K1, sequence (peptide, as listed by the source limits assumed): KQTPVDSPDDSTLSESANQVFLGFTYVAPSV

Molecule	percent of maximal binding of the wild type protein [5] [%]	PDK1 activity, T308tide as substrate [6]	stated: activates; PDK1 activity (%) with T308tide as substrate [6]	percent of maximal binding of the wild type protein [8] [%]	response units [9] [RU]	response units [10] [RU]	other results
O=C(O)/C=C(\CCc1ccc(Br)cc1F)c1ccccc1 [PS133]							activation of PDK1 ([1]; T308tide as substrate): nor did they activate PDK1; effect on TNP-ATP fluorescence intensity in the presence of PDK1 [2]: did not produce any decrease; also recorded: did not affect
CC(C)C[C@H](NC(=O)[C@H](Cc1ccccc1)NC(=O)[C@@H](NC(=O)[C@H](CCC(N)=O)NC(=O)[C@H](CC(N)=O)NC(=O)[C@H](C)NC(=O)[C@H](CO)NC(=O)[C@H](CCC(=O)O)NC(=O)[C@H](CO)NC(=O)[C@H](CC(C)C)NC(=O)[C@@H](NC(=O)[C@H](CO)NC(=O)[C@H](CC(=O)O)NC(=O)[C@H](CC(=O)O)NC(=O)[C@@H]1CCCN1C(=O)[C@H](COP(=O)(O)O)NC(=O)[C@H](CC(=O)O)NC(=O)[C@@H](NC(=O)[C@@H]1CCCN1C(=O)[C@@H](NC(=O)[C@H](CCC(N)=O)NC(=O)[C@H](CCCCN)NC(=O)CCCC[C@@H]1SC[C@@H]2NC(=O)N[C@@H]21)[C@@H](C)O)C(C)C)[C@@H](C)O)C(C)C)C(=O)NCC(=O)N[C@@H](Cc1ccccc1)C(=O)N[C@H](C(=O)N[C@@H](Cc1ccc(O)cc1)C(=O)N[C@H](C(=O)N[C@@H](C)C(=O)N1CCC[C@H]1C(=O)N[C@@H](CO)C(=O)N[C@H](C(=O)O)C(C)C)C(C)C)[C@@H](C)OP(=O)(O)O [biotin-P-HM-S6K] (Biotin-KQTPVD[pS]PDDSTLSESANQVFLGF[pT]YVAPSV-OH; N-terminus and C-terminus assumed)							Kd [3]: 500 nM
KTFCGTPEYLAPEVRR [T308tide, polypeptide substrate of PDK1 derived from the PDK1 phosphorylation site on PKB]							Km ([1]; estimated, 22° C.): > 10 mM
PDK1 CD (50-359) wt (enzyme, also called PDK1 50-359; PDK1 CD wt) GPMDGTAAEPRPGAGSLQHAQPPPQPRKKRPEDFKFGKILGEGSFSTVVLARELATSREYAIKILEKRHIIKENKVPYVTRERDVMSRLDHPFFVKLYFTFQDDEKLYFGLSYAKNGELLKYIRKIGSFDETCTRFYTAEIVSALEYLHGKGIIHRDLKPENILLNEDMHIQITDFGTAKVLSPESKQARANSFVGTAQYVSPELLTEKSACKSSDLWALGCIIYQLVAGLPPFRAGNEYLIFQKIIKLEYDFPEKFFPKARDLVEKLLVLDATKRLGCEEMEGYGPLKAHPFFESVTWENLHQQTPPKLTA	50	the wild type protein and PDK1[Phe224Trp] were activated by PIFtide	The bar without PIFtide is at 100 %. The two hatched PIFtide bars (labelled 2.5 and 40 µM) are both between 350 and 400 %, with little difference between them.	~50			response units at maximum binding (PDK1 injected at 5.4 µM) [4]: 600 RU; Kd [7]: 500 nM
PDK1 CD (50-359) [Phe224Trp] (enzyme, also called PDK1[Phe224Trp]; PDK1 Phe224Trp) AMDGTAAEPRPGAGSLQHAQPPPQPRKKRPEDFKFGKILGEGSFSTVVLARELATSREYAIKILEKRHIIKENKVPYVTRERDVMSRLDHPFFVKLYFTFQDDEKLYFGLSYAKNGELLKYIRKIGSFDETCTRFYTAEIVSALEYLHGKGIIHRDLKPENILLNEDMHIQITDWGTAKVLSPESKQARANSFVGTAQYVSPELLTEKSACKSSDLWALGCIIYQLVAGLPPFRAGNEYLIFQKIIKLEYDFPEKFFPKARDLVEKLLVLDATKRLGCEEMEGYGPLKAHPFFESVTWENLHQQTPPKLT	50	the wild type protein and PDK1[Phe224Trp] were activated by PIFtide	The bar without PIFtide is at 100 %. The two hatched PIFtide bars (labelled 2.5 and 40 µM) are both between 440 and 480 %.	~50	> 200	200	
PDK1 CD (50-359) [Thr226Trp] (enzyme, also called PDK1[Thr226Trp]; PDK1 Thr226Trp) AMDGTAAEPRPGAGSLQHAQPPPQPRKKRPEDFKFGKILGEGSFSTVVLARELATSREYAIKILEKRHIIKENKVPYVTRERDVMSRLDHPFFVKLYFTFQDDEKLYFGLSYAKNGELLKYIRKIGSFDETCTRFYTAEIVSALEYLHGKGIIHRDLKPENILLNEDMHIQITDFGWAKVLSPESKQARANSFVGTAQYVSPELLTEKSACKSSDLWALGCIIYQLVAGLPPFRAGNEYLIFQKIIKLEYDFPEKFFPKARDLVEKLLVLDATKRLGCEEMEGYGPLKAHPFFESVTWENLHQQTPPKLT	50	PDK1[Thr226Trp] was not activated by PIFtide		~50	> 200	200	stated: no activation; PDK1 activity (%) with T308tide as substrate [6]: The bar without PIFtide is at 100 %. The two hatched PIFtide bars (labelled 2.5 and 40 µM) stay at about 100 %.
